Measured values taken from IntAct's records for PubMed 21048939.

Biological target: arhg7_human ARHGEF7 (UniProt Q14155)
Chain of UniProt Q14155 (Q14155 whole entry): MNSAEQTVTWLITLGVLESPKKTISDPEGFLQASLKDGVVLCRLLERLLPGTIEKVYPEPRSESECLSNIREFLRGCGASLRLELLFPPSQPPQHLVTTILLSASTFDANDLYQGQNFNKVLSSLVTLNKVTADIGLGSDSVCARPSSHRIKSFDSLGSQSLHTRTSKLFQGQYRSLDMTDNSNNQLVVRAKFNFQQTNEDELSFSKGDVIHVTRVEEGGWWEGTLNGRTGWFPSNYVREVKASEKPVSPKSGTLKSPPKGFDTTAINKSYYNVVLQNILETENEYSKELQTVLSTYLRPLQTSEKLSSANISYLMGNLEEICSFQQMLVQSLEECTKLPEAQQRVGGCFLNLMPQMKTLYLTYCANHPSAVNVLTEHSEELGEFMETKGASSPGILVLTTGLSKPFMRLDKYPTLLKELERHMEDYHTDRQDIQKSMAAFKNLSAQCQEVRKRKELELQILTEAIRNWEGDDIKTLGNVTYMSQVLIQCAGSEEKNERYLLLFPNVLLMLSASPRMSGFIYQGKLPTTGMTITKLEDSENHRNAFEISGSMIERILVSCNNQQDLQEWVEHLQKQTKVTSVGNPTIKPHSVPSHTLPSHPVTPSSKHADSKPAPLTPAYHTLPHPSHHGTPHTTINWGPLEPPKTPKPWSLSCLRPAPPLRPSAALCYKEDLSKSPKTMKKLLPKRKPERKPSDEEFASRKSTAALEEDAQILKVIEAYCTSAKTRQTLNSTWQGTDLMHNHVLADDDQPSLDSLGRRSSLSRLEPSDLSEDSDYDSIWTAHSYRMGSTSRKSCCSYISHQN

Effect of a mutation on the interaction, decreasing interaction:
Leucine-rich repeat serine/threonine-protein kinase 2 (Homo sapiens), Q5S007 N1437S
Leucine-rich repeat serine/threonine-protein kinase 2 (Homo sapiens), Q5S007 R1441C
Leucine-rich repeat serine/threonine-protein kinase 2 (Homo sapiens), Q5S007 T1348N
